Molecular target: angiotensin converting enzyme (Homo sapiens, UniProt P12821)
Assay: ACE inhibition activity measurement (IC50)
Format: biochemical
Details: FIG. 6; for ACE inhibition: isolated peptides
Experimental: The inventors of the present invention measured the ACE inhibition activities based on the process concentration with respect to the second hydrolysate containing a lower molecular weight among the gelatin extracts of the skins of a skate ray obtained from the above embodiments so as to develop a new hypertension therapy medicine which could be quickly absorbed by a human body and has a good effect, and the measurements were conducted in the method of measuring IC50 concentration which could inhibit 50% of the angiotensin converting enzyme in accordance with the angiotensin converting enzyme inhibition measurement method.
The inventors of the present invention isolated two active peptides by way of FPLC (Fast Protein Liquid Chromatography) with respect to the second hydrolysate so as to isolate the functional peptides having an antihypertensive activity contained in the second hydrolysate of the gelatin extract obtained from the skins of a skate ray. As a result of the analysis on the base sequence of the peptide, it was confirmed that the peptide had the following base sequence. In addition, the ACE inhibition (IC50) was checked in the earlier explained method so as to check the antihypertensive activity with respect to the peptides.

Sequence of angiotensin converting enzyme (P12821 30-1306, species assumed): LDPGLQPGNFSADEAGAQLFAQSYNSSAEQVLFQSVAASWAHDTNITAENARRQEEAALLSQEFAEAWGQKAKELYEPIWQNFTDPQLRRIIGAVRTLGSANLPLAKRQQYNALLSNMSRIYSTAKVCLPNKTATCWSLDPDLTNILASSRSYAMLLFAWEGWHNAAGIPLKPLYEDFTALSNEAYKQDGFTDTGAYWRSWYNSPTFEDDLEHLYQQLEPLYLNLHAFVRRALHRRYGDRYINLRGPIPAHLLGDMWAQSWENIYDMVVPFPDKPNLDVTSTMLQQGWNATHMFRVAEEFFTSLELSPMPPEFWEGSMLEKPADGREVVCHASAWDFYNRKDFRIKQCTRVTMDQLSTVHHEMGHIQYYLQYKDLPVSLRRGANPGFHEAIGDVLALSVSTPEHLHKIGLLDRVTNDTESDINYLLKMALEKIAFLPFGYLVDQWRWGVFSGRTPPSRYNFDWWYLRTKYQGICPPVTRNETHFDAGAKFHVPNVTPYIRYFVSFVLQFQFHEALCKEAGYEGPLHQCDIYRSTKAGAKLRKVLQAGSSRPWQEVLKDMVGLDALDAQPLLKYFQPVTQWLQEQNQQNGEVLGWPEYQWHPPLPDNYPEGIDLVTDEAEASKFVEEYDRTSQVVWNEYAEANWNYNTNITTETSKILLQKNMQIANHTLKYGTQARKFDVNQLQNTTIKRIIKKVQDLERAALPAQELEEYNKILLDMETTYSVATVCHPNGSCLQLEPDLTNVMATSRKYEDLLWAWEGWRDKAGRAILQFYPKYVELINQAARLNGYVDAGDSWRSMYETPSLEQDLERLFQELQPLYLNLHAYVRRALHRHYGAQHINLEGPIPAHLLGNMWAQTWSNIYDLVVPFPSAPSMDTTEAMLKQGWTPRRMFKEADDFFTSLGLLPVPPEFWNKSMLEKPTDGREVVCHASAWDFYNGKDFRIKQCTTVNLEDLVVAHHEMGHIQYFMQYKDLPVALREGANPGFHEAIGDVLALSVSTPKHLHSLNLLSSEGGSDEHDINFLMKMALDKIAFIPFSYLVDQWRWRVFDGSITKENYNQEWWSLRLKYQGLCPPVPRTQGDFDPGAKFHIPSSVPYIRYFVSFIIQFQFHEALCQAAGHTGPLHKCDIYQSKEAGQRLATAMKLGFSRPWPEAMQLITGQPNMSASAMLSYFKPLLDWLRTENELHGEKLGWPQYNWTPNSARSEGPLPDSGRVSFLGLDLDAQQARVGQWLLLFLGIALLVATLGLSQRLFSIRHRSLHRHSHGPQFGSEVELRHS

Substance | ACE inhibition | antihypertensive activity (ACE inhibition) compared with the other peptide
LGPLGHQ [SP2, peptide (720 Da) isolated by FPLC from the second hydrolysate] | have the ACE inhibition | –
MVGSAPGVL [SPI, peptide (829 Da) isolated by FPLC from the second hydrolysate] | have the ACE inhibition | higher antihypertensive activity as compared to the SP2
